Data reported in publication PMC3927142.

Assays:
Assay in all cases: flow cytometry on cells
[1] = molecular target: E6.2.10 (human) (UniProt P02751)
[2] = molecular target: EI1.4.1 (human) (UniProt P02751)
[3] = molecular target: EI2.4.6 (human) (UniProt P02751)

With “EGFR mutant 404SG (from UniProt P00533 25-1210) (receptor)” the Kd [1] was 0.96 nM, the Kd [2] was 0.85 nM and the Kd [3] was 2.9 nM.
